Measurements: the DeepSol protein solubility set

Assay: soluble on expression in E. coli; label from the status in PepcDB or PDB records

Row | Sequence | soluble on expression in E. coli
1 | MAHHHHHHMDYRQKAARLPRSAEEKSRWRRVIIILEHCPLAVVRGKYGFELLAERHRAHHARYKQDPAEWRPDVVHQALLHLMDSPLNRAGMLQVFLRTKKGVVIAVDPRLRVPRHMRLFEKMMVSCLYRMKVRAANGSVSLLRVVKNPVTDHIPANCTLIRVEKDGDAVPDIFAYCATCGTNRHADGSTSENVGTATACSSSAGSDAKEPHFAQKHRDLADAKQFRPFAFIIGGMSKGDVDAPYAPRAQVKSIRLGDRGMSAAAACSVIIHGFEEEWLREDNEAC | not soluble
2 | MGSDKIHHHHHHMEFLRNTWYAAGWSQDLAAGAMLGRTMLNEQLVLFRADDGTVSALSDICPHRFAPLHLGKIVDGCRIQCAYHALEFDGTGACVKNPHGKQKIPAAAKLQAYPVVEKHSLIWVWMGEQAAADPSVIPDFSMLDPDSGFQVSRRDWLHMDASYDLVVDNLMDLSHTAFLHDGILGSKYTIKADTSLEQTGETVKVTRLMPNVPVPGFFDLMFNRDGGIVDYWTEIRWNLPGCLMNNTGVTLPGAPRSEGTGVYGMHFLTPETDVSCWYHFAAVRQNPRTWGEPIDTEIKEKISDLRRYAFEEQDQWIIKAQQQTILRAKGNLQPVSLETDIGIERYKRILKAALVAERSGSTMAA | not soluble
3 | MAFYNSIPLIGKHLKSESRAKKYTSEEFKRLEREYRDHIGLPENSSFSSDAFDKLVSSRVDDFRAFPKTNLPGGLLFHDKLKEANTTEGDNIRDVLSKTVLAPTEKFKTAQKNFTESTSTFKELTKLIPSKFRAQDLVGTMKELTDDARKAIIEQQAHEIQMLKEKLDPQKEGQAGNYVSDFKKALGLKDNDEVKKVTEGLIKELEETHKKQLGEFDKSTSDSLNQLHKASASESSEYLFLANLYENNKEMRQTLEKLYAKERQRKGLPPESTTVQVGISENKIDLNGIKLKDIPVIKSITGREIHQQPDGSFAIQMPMINPFYYQDPRQNVKTDMMLIAQAIKASGYDSIEMNCNFPNSEKVAMERGRQAFAACIEAGFPVDKITINVNGKPMKADELFKEHPKTYQDIMSRASKISKDYEDIKAPKTSTAPVNTVVVKQEIAALRTKQQQEERAQTQPVDEQRHGVTPNNLEHHHHHH | not soluble
4 | MGSSHHHHHHSSGLVPRGSHMEFKVIAEYFDKLEKISSRLQLTALLADLLSKSDKTIIDKVVYIIQGKLWPDFLGYPELGIGEKFLIKAISIATNTDENSVENLYKTIGDLGEVARRLKSKQQSTGILGFLGTTSKESLTVDEVYSTLSKVALTTGEGSRDLKIRLLAGLLKKADPLEAKFLVRFVEGRLRVGIGDATVLDAMAIAFGGGQSASEIIERAYNLRADLGNIAKIIVEKGIEALKTLKPQVGIPIRPMLAERLSNPEEILKKMGGNAIVDYKYDGERAQIHKKEDKIFIFSRRLENITSQYPDVVDYVSKYIEGKEFIIEGEIVAIDPESGEMRPFQELMHRKRKSDIYEAIKEYPVNVFLFDLMYYEDVDYTTKPLEARRKLLESIVKPNDYVKIAHHIQANNVEDLKSFFYRAISEGGEGVMVKAIGKDAIYQAGARGWLWIKLKRDYQSEMADTVDLVVVGGFYGKGKRGGKISSLLMAAYNPKTDSFESVCKVASGFSDEQLDELQKKLMEIKRDVKHPRVNSKMEPDIWVEPVYVAEIIGSEITISPLHTCCQDVVEKDAGLSIRFPRFIRWRDDKSPEDATTTDEILEMYNKQPKKKIESPAVDESV | soluble
5 | MFTKSGDDGNTNVINKRVGKDSPLVNFLGDLDELNSFIGFAISKIPWEDMKKDLERVQVELFEIGEDLSTQSSKKKIDEKYVKWLEERTVEYRKESGPVKLFVIPGGSEEASVLHVTRSVARRVERNAVKYTKELPEINRMIIVYLNRLSSLLFAMALVANKRRNVSEKIYDIGKFW | soluble
6 | MILRYATNLKLAKELYQASKPKLQEDKGMIELFEHTFGLQKELVKYVGIAEATTAALYSASFINKNISRLASLSTIGILSVAAYKHFEAGQGKKGAQHALDLLGLATLSLLDTFSCNKKLEHHHHHH | not soluble
7 | MSLNDGRLEIFQEGKPGRRIDEDQVFAAVLDALTKPAEQRTVTVAFREIPPPITAANLDQLGITTLIGVGRSDFTGSAAYRVTNIQAGMRLLHGVLIAPGEEFSFNQTIGRIDRSNGFVEGYAIIQNRTQLEWGGGICQDSTTMFRAAFWAGLPITERWGHSFYISWYDRYAFGPYGDGPGMDATIFTGGPDLKFLNDTGGWLLIQTLVDTHRHLAEVRLYGPDTGRKVLLEGPIITNRTEGHHHHHH | not soluble
